# Assay: soluble on expression in E. coli; label from the status in PepcDB or PDB records
row,Sequence,soluble on expression in E. coli
1,MGSDKIHHHHHHMKPRKQDEKILSDQYSYFEPIISDSCDIKFDGDKRRIGSIFISHEEICFIRKEEDYIFKISLSDVVDYNTVVTIWKNQASLTLNDNRKITFYFVTNSPLTGFISILKTYMQLSRNKETIIPDDNLLINDDDEQTKVEIFDVVGLNYEGRRKELKKLIKKMKTNDAFFFLYSDLKGNELKEELLYEDKVYEIPDYEVIPGVFLQKEPDNPYDENAIKVMISNEYSEFHVGYVPREYASRLVNYIEDTVSCNAYINGGKYKTLDYLEEKIVTKESDYGLRIHVEYKV,not soluble
2,MGSDKIHHHHHHMKQAEEVIHPEALSGTGIMTISREPVVFHCNHYNRFLQLVIEDCHYIDREPILVGSATEVSFRQLRTAFREHPEWSVANRLKYAESMYRFCGFGDLPLGALPHSAEPEFVLVENHSHYGTALRLNYGKRRWPGEHFDLGYAIGALSAIYGQPYGGKIDATALSTGAETTRFHLHLRNSGDRFPLDIPDIPQAVLPQGADQVPPRHIGLHIDEDAIMTAVGTLPLTGDPDGLIPAFGVYLTRHYADYYNLVSFRFERALQEALNTHRYLGEMLWYEYPTLFYYKEKFEHLQGQALARTLLMEAGHICGFNTMGGIMRSDPWYQLIVPQLQCREDWLSGIIACINALGWGVWRIQEIIPNERLILRAWYPYESLGHLRAFGPADHPIDYLMTGIGSSLMNLLYTADITTRPDLTLEFYYQVNRSKAGFWARQTRCMAMGDPYSEVVVERNIL,not soluble
3,MGSDKIHHHHHHMKQIIDIENWERKENFNFFRHFQNPQLSITSEVECGGARQRAKAAGQSFFLHYLYAVLRAANEIPEFRYRIDPDGRVVLYDTIDMLSPIKIKENGKFFTTRFPYHNDFDTFYQEARLIIDAIPEDGDPYAAENEEVADGDYGLILLSATPDLYFTSITGTQEKRSGNNYPLLNAGKAIIREGRLVMPIAMTIHHGFIDGHHLSLFYKKVEDFLK,not soluble
4,MGSDKIHHHHHHMKRDFLGRTLAVIEDLSVEEQMFLYEKTRELKQRWYSGEDVSDFRIKKRNVGIYIVFVEPSTRTKESFINAAKFHSGPNVKVNVFDSEHSSFNKQESYTDTFSMLTGYSDYSIFVVRTRLEGVCRLLERRISEFASRNGIEVPSFINAGDGKHEHPTQELLDEYTFLEQNGFDNSFIHVALVGDLLHGRTVHSKVNGLKIFKNVKVDLVAPEELMMPEHYVEKMKKNGFEVRIFSSIREYLDQKDVAKIWYFTRLQLERMGEDILEKVHVLREAVTFKKEYLDALPEGVKFYHPLPRHKVYPTIPNFLDTLPLNGWETQARNGYWVRIVLLSMFGGALEAPFDTSKKEEKPEEDFIIPAPITHGSKGVQKEGKRGIKPIENGTVIDHIAKGKTPEEIYSTILKIRKILRLYDVDSADGIFRSSDGSFKGYISLPDRYLSKKEIKKLSAISPNTTVNIIKNSTVVEKYRIKLPPTIYGFEELRCKNENCITNPAHGENASPSFVRNEKGQFICEYCETPHSFEEIWSI,not soluble
5,MGSDKIHHHHHHMKRKINYTHIAEPTVFENVFPTYLTNETMMARKQKVLQRMETEKFDQLVFYADKEHGSNFEYLTGFIPRFEEGLLVLNKDGAATLILGNENLKLCQHARISADLIHYLAFSLPNQPMAGEQKLSQIFETLLDETAQKIGIVGWKMFTTQQQEPATMFDVPHFIVEALKKALPKEARLLNGTHLLIGAKGARATNNANELAHYEYGANLASRSMLKALNAIEIGQRETDIGALLNDEGQTPTVVTIAATGQRFEYANMYPTAKEIQLGDALSLTTGYKGGLSSRTGFVIENEQQLPEAQRDYLERVAKPYFQAVVHWLETIRIGLLGREMYQAIEEQLPKEIYHWHLNPGHLVSDDEWMSSPIYPDSAIRLESGMLFQVDIIPSVPGYTGVSAEECVALADETLQKEIQQTYPDMWQRIATRKAYLKETLKLDLPSEVLPMSNLVGYLRPFYLAKDKALCVEKPALK,not soluble
6,MGSDKIHHHHHHMKRLDGIPESMLIPLIARAKEYEYEKPIIKDALSKKIFDGLDDIYKNVTCDDMSQIGISIRSVIIDSVTKRLIKDNKNLIVINIGCGLDTRFQRFNNEKISWIDLDVPESIEIRKTFFKETDSYKMIAKSMLDYSWIEDVINYKFFNSKSNILFIFEGVLMYFDESVMTKLLHTIIKKFGDHNLTFAIEFCSKTIANNTKRHKSVSKLSSQPVFKYGYNDLNELDKVLPNKMKVINEYNYFDYHKKRWGLFGYCRYIPYLKKRLNNKIVIMEYKPAKLITHN,not soluble
7,MGSDKIHHHHHHMKRTTKSIQAEIAKGAFRPHTALSTMALAYYQQETTSFAKNMFPVCPVQLSSDNYYVFDKEDLLRDNWNRKPAYGSVDPAVISEHTENYACHVDQMMMGIDNIRQTDLNRRQGPHTKDPRQQRTKVIATQANIHQDAEFSKSFMRKGVWKNEATGTDSVSVTSGQFIKFSNGNSDPIAFFQNKMTEINEETGRTPNRLGLGVNVYNALKEHPAILERVKYGGSTPNPAKVNLNVLAQLFEIDRIVLDRTVQNKAGLGQNADMGYIGDPNSFLLAYATDTPSVEEPSAGYIFTWDMLENGILLPILNYPGAPGTHSELVEGLMAYDMKKTADDLAFFGCDAV,not soluble
8,MGSDKIHHHHHHMKSFQLVATAASGLEAIVGKEVARLGYDPKVENGKVYFEGDLSAIARANLWLRVADRVKIVVGVFKATTFDELFEKTKALPWEDYLPLDAQFPVAGKSVKSTLYSVPDCQAIVKKAIVNRVSEKYRRSGRLMETGALFKLEVSILKDEVTLTIDTSGAGLHKRGYRLAQGSAPIKETMAAALVLLTSWHPDRPFYDPVCGSGTIPIEAALIGQNIAPGFNREFVSETWDWMPKQVWADARQEAEDLANYDQPLNIIGGDIDARLIEIAKQNAVEAGLGDLITFRQLQVADFQTEDEYGVVVANPPYGERLEDEEAVRQLYREMGIVYKRMPTWSVYVLTSYELFEEVYGKKATKKRKLYNGYLRTDLYQYWGPRKPRPKKED,not soluble
9,MGSDKIHHHHHHMKTAILDRFVFSDEVRDIIENAPEIIIPESRKEILDLAIAGRDLFEVGYEVPGKGFVVEATVTRCKNGLVVNYPEPYMRRRDPNALVVGDNLETDKPRFRERFGKEFEPIRQETFEWLKKQELILLPFMAGGYDYGYPAVLIAPKNAGFFVGGLADLQFFVPASEVPENFKPKLYMFLAPPFRHTHFDGKQVVVHYRHNSHYEIFSYNLYPGPSAKKGVYGFLLHVGEKEKWVTAHASAVKVITPYENELVIMHEGASGGGKSEILEEIHREPDGRIKLAENIVTGEKFYMELKQSCVLMPVADDMFMCHPKLQTGKKLVAKDAEAGWFIRVDHITEYGSAPDLERLTIHPPEPLIFLNIYAVPNSTALIWEHIEDEPGKPCPNPRVIIPKRFMKNAVSEPVKVDVRSFGVRTPPCTKEKPTYGIVGLMQILPPALAWLWRLVAPRGHANPSIVSTKGMTSEGVGSFWPFSSGKMVRLANILLEQIIDTPETRYILVPNQYIGAYKVGFMPEWIAREYLSRRGGVRFRPDQLVPSKCSLLGFSLKEMKIEGNTIPKELLQPHLQSEVGEEAYEKGAQELKDFFKRELKKFLTEDLNPVGREIIQCCLDDGSLDDYLKIIPMNF,not soluble
10,MGSDKIHHHHHHMKTLCTHSLPKEKMPYLLRSGEGERYLFGRQVATVMANGRSTGDLFEIVLLSGGKGDAFPLHVHKDTHEGILVLDGKLELTLDGERYLLISGDYANIPAGTPHSYRMQSHRTRLVSYTMKGNVAHLYSVIGNPYDHAEHPPYASEEVSNERFAEAAAVADIVFLDEAKPACSAKLAELTELPDGAVPYVLESGEGDRLLTGDQLHRIVAAQKNTDGQFIVVSSEGPKGDRIVDHYHEYHTETFYCLEGQMTMWTDGQEIQLNPGDFLHVPANTVHSYRLDSHYTKMVGVLVPGLFEPFFRTLGDPYEGHIFPCEPQALRFDRILQNIEALDLKVMKP,not soluble
11,MGSDKIHHHHHHMKTLKGPAIFLAQFIGDTPPFDKLETMAAWVSSLGYAGVQMPTGGADSFFDLALAAESQTYCDDIAGLLAEYGLEITELSTHLQGQLVAVHPAYDELFDGFAPPELRGKPKERQAWAVEQVKAAAVASRRLGLKAHATFSGSLAWPYLYPWPQRPAGLIEEAFAELGRRWKPILDVFDENGVDAAYEIHPGEDLHDGATFERFLDEVGGHPRANILYDPSHFVLQQLDYLAYIDRYHERIKAFHVKDAEFRPSARSGVYGGYQGWVDRPGRFRSLGDGQVDFKAIFSKLAQYDYDGWAVLEWECALKHPEQGAAEGAPFIRDHIIRVTDKAFDDFASAGSEAGRNRRLLGL,not soluble
12,MGSDKIHHHHHHMKVKKWVTQDFPMVEESATVRECLHRMRQYQTNECIVKDREGHFRGVVNKEDLLDLDLDSSVFNKVSLPDFFVHEEDNITHALLLFLEHQEPYLPVVDEEMRLKGAVSLHDFLEALIEALAMDVPGIRFSVLLEDKPGELRKVVDALALSNINILSVITTRSGDGKREVLIKVDAVDEGTLIKLFESLGIKIESIEKEEGF,soluble
13,MGSDKIHHHHHHMKVNLPAFERAGVMVVGDVMLDRYWYGPTCRISPEAPVPVVKVNTVEERPGGAANVAMNIASLGANARLVGLTGIDDAARALSKTLAEVNVKCDFVSVPTHPTITKLRVLSRNQQLIRLDFEEGFEGVDPQPLHERINQALGSIGALVLSDYAKGALTSVQTMISLARQAGVPVLIDPKGTDFERYRGATLLTPNLSEFEAVAGKCKSEDELVERGMKLIADYDLSALLVTRSEQGMTLLQPNKAPLHMPTQAQEVYDVTGAGDTVIGVLAATLAAGNTLEEACYFANAAAGVVVGKLGTSTVSPIELENAVRGRADTGFGVMTEEELRQAVASARKRGEKVVMTNGVFDILHAGHVSYLANARKLGDRLIVAVNSDASTKRLKGESRPVNPLEQRMIVLGALESVDWVVSFEEDTPQRLIAGILPDLLVKGGDYKPEEIAGSEEVWANGGEVMVLNFEDGCSTTNIIKKIQTESEK,not soluble
14,MGSDKIHHHHHHMKVSVVILNWNGCDMLRTFLPSVIRYSKSEEVEVCVADNGSTDASVEMLREEFPCVRIIVLDQNHGFADGYNLALQQVEAEYVVLLNSDVEVTEHWLEPMISYLDGHPEVAACQPKIRSQRQKEYFEYAGAAGGFIDKYGYPFCRGRIMGVVEKDEGQYDTILPVFWATGAALFIRHADYREAGGLDGRFFAHMEEIDLCWRLRSRGREIVCIPQSTVYHVGGATLKKENPRKTFLNFRNNLVMLYKNLSDEELNKVMRIRTCLDYVAAFTFLLKGQLDNARAVMRARKEYKQICPSFSSSRKENLRKTSLNPIPERIKSSILWQFYVGGCKRFSQLSDLKG,not soluble
15,MGSDKIHHHHHHMKYQQKLRNMIDFIGKHLDEELSLESLSEIFCISKFHFHRLFTAFTGLSLQQYIKWLRLKRAAHQLIVDKDQSVINIAINAGFESHEAFSRAFKKACGFSPSQFRQGFGRSYWEQPPYCLPGQSRTDMKVDIKSIDKIRLAVIEHKGDPKLLGESINKLVSWAKSQSINLKPRAGEAFALAYDDPKTTPPSDFRIDLGIKVPENLKLDGVIEKFLPSGRYAVTVHKGSRNNIGDVVYYLYRDWLPNTSEQLGDLPCIFCYYNFDHEVAETELLTECWLLLK,not soluble
16,MGSDKIHHHHHHMKYYICVCVFLLLNACNSDFSTNQEDIKYPSDKEKSKSNMEASSKEEDPNKKIKNTLLNDLINLIEIANEHKEKYEKRMQEEPSDQYGILAFQELDLSVGKISEDTPQSKKFRKNTYSPLSAIDVNKLKDLSEIIRNSGQIQGLFNIFNRFGGIFDDSLNHVYSKKDILGGLEILDLDKLKNSFEKLLSIKETFSKMLNQLLLDYKNDKDHIRTETNKLKSHTTALFEQLDKKEDEAYEPKNQIFSISNL,not soluble
